One protein from publication PMC9781407, “β-Xylosidase SRBX1 Activity from Sporisorium reilianum and Its Synergism with Xylanase SRXL1 in Xylose Release from Corn Hemicellulose” (Journal of Fungi, 2022) can be followed below.

Substrate in the data set: O=[N+]([O-])c1ccc(O[C@@H]2OC[C@@H](O)[C@H](O)[C@H]2O)cc1
As to the kind of experiment: purified protein. It is filed as biochemical, Sporisorium reilianum. To be noted: 50 mM-type acetate buffer assay, pH 4, substrate 1-7 mM, temperature not stated for the kinetics.

B1: β-xylosidase SRBX1 (Sporisorium reilianum SRZ2) (protein)
chain: ASLEHLNMLFHTRQADASNSTDSSSVNWNISSSDNSALATAPLAGTFYRGGPALADANSPFHPVTGNGGWEWAVVKARSVVGQLTLEEKVNLTAGITGGRCEGTLGRVDRFGIPELCFQDGPAGFRASDFVTVFPAGVTTAATWNRDLIYKRAAALGAEFVAKGVNVHLGPVTGGPLGRSPFQGRNWEGFGPDPYLHGEAAYYTVSGTQSAGVISTAKHFLAYEQETYRQLYAASDPFTLNPNNNTELTYSANLDDRTLHELYLWPFMNAVRAGTGALVCVYNRVNSTQGCESSKLLNEILKDELDYQGFVVTDWSAAFNTSNTYNGGSDVVMPGGMTGGYKNLVGGSDLVRALNAGEVKIERINDGITRLLTQWYLRGQDKGYPTVSYKDGYQNTIFNGTVVNEHRDVQGDHRKIVKEIGEEAVTLIYNKRSNKAGPQGNTDFGLGLPLAKKARVAVFGSDAGPNPYGANACQDWIGLGSQLCPANATSNGTQAVGWGSGAGFFPYLIDPLAGISEVAKENRGAVLHNLNDVGDDKNQMYVKQQAGLADASLVFVQARSGEDSDRHSLRLDADGDELIKLVASQSNNTIVVMHTVGPVLMGDWFDHPNITALVLPHLPGQESGSSLARVLYGDVNPSGKMPYSMLSDEDAKRYPKIVGSPASDPQVDFYDGLYIDYRAWDKMGLKPLIPFGHGISYTNYSYSNLHIQKAGDNCYAPSAFSGSFKSDKQPGGPGSLFQYLVEVSADVQNVGAMAGDEVAQLYVGYPEAANAPIKQLRGFDKVQGLEPGAASKQATFKLAKRDFSVWDVVKQKFEVVDGEYKIWVGKSSRMSDLTLKGSVTMQNGMVVGMSS
notes: native extracellular enzyme purified from S. reilianum culture supernatant by gel filtration; theoretical precursor 874 aa, signal peptide 1-23; monomer; 12 theoretical glycosylation sites; no tag
One may read the Km as the substrate concentration at which the rate is half of its maximum. For B1, the Km stood at 2500 µM.
